Consider one substance from article doi:10.1101/2025.10.29.685377.

Like-named read-outs stand apart in the source and are kept apart here.

Assay [1] concerns the target Alka channel (Drosophila melanogaster alkaline taste receptor Alka) (Drosophila melanogaster). The assay can be described thus: cryo-EM structure.
For assay [2] the target is unchanged. Kind of assay: cryo-EM structure. This is another data set of the same source.

For “Alka channel (Drosophila melanogaster alkaline taste receptor Alka)”, the stoichiometry N in assay [1] and in assay [2] was 5 each time.
